# Several values for one entry are separate records, joined by “and”; a condition that tells them apart may be missing. Identical values can stand only once.
# T1: G protein of rabies virus CVS-11 strain (on virus) (rabies virus CVS-11 strain, UniProt O92284 20-524)
# T1 sequence: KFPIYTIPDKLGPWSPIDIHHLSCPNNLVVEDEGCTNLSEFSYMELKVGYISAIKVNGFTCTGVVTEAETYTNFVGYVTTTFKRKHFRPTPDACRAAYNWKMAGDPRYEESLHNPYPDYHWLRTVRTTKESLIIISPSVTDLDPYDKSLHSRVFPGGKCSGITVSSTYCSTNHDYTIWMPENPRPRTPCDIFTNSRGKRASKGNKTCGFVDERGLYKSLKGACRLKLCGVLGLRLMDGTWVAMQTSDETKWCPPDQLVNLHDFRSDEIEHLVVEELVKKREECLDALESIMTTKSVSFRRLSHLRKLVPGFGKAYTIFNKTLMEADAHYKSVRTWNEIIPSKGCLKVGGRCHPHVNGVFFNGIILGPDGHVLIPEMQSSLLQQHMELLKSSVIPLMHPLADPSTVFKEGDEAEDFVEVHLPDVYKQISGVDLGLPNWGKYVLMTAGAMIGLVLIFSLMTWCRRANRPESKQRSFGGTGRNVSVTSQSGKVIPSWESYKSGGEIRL
# Experiments:
# Assay in all cases: cell-based or functional assay
# [1] = biological target: G protein of rabies virus DR MX (Bat, Mexico), on virus (rabies virus)
# [2] = biological target: G protein of rabies virus 3860 CA Bat (Bat, California, USA), on virus (rabies virus)
# [3] = biological target: G protein of rabies virus Dog Tun (Dog, Tunisia), on virus (rabies virus)
# [4] = biological target: G protein of EBLV 1 A09-3484 (Genotype 5), on virus (EBLV 1, Genotype 5)
# [5] = biological target: G protein of rabies virus AK FX (Arctic Fox, Alaska, USA), on virus (rabies virus)
# [6] = biological target: G protein of rabies virus China dog 2005 (Dog, China), on virus (rabies virus)
# [7] = biological target: G protein of rabies virus VA 399 (Bat, Virginia, USA), on virus (rabies virus)
# [8] = biological target: G protein of rabies virus TX Coyote (Coyote, Texas, USA), on virus (rabies virus)
# [9] = biological target: G protein of rabies virus CASK (Skunk, California, USA), on virus (rabies virus)
# [10] = biological target: G protein of rabies virus Rv342 China (Cow/dog, China), on virus (rabies virus)
# [11] = biological target: G protein of rabies virus TX SK 4384 (Skunk, Texas, USA), on virus (rabies virus)
# [12] = biological target: G protein of EBLV 2 A03-4659 (Genotype 6), on virus (EBLV 2, Genotype 6)
# [13] = biological target: G protein of rabies virus NC SK (Skunk, Wisconsin, USA), on virus (rabies virus)
# [14] = biological target: G protein of Duvenhage (Genotype 4), on virus (Duvenhage, Genotype 4)
# [15] = biological target: G protein of ABV (SM 4476) (Australian bat lyssa, Genotype 7), on virus (Australian bat lyssa, Genotype 7)
# [16] = biological target: G protein of EBLV 2 A09-3483 (Genotype 6), on virus (EBLV 2, Genotype 6)
# [17] = biological target: G protein of rabies virus 857r (Raccoon dog, Russia, Far East), on virus (rabies virus)
# [18] = biological target: G protein of rabies virus LC NY (Bat, New York, USA), on virus (rabies virus)
# [19] = biological target: G protein of rabies virus C1434 (Bat, Alabama, USA), on virus (rabies virus)
# [20] = biological target: G protein of rabies virus Mongoose PR (Mongoose, Puerto-Rico), on virus (rabies virus)
# [21] = biological target: G protein of rabies virus Sri Lanka (Cow, Sri Lanka), on virus (rabies virus)
# [22] = biological target: G protein of rabies virus Gabon dog (Dog, Gabon), on virus (rabies virus)
# [23] = biological target: G protein of rabies virus TXFX (Gray fox, TX), on virus (rabies virus)
# [24] = biological target: G protein of EBLV 1 A09-3485 (Genotype 5), on virus (EBLV 1, Genotype 5)
# [25] = biological target: G protein of rabies virus WA Bat (Bat, Washington, USA), on virus (rabies virus)
# [26] = biological target: T1, G protein of rabies virus CVS-11 strain …
# [27] = biological target: G protein of rabies virus phi dog (Human/dog, Philippines), on virus (rabies virus)
binder,measurement,setting,value
"antibody 1 (antibody, V domains shown) VH: VQLLQESGPGLAKPSETLSLICTVSGGSISRRRDYWGWIRQPPGRGLEWIGSFFHRGSTYYNPSLESRVSISVDPSKNQFSLHLSSVTVADTAVYYCARHPSTPFAEYLLLPDAFDSWGQGTLVTVSS VL: DIVMTQSPATLSVSPGERATLSCRASQSVRSSLAWYQQRPGQAPRLLISGASTRATDIPARLSGSGSGTEFTLTVSSLQSEDFAVYYCQQYSDWPLTFGGGTKVEIKR",neutralizing activity (RFFIT),[1],2.4 IU/mL and 2380 IU/mg
same,"neutralizing activity (RFFIT), Titer",[1],250
same,neutralizing activity (RFFIT),[2],0.4 IU/mL and 2000 IU/mg
same,"neutralizing activity (RFFIT), Titer",[2],56
same,neutralizing activity (RFFIT),[3],2.3 IU/mL and 2300 IU/mg
same,"neutralizing activity (RFFIT), Titer",[3],230
same,neutralizing activity (RFFIT),[4],0.56 IU/mL and 2800 IU/mg
same,"neutralizing activity (RFFIT), Titer",[4],56
same,neutralizing activity (RFFIT),[5],0.44 IU/mL and 2220 IU/mg
same,"neutralizing activity (RFFIT), Titer",[5],60
same,neutralizing activity (RFFIT),[6],0.43 IU/mL and 2140 IU/mg
same,"neutralizing activity (RFFIT), Titer",[6],12
same,neutralizing activity (RFFIT),[7],0.56 IU/mL and 2780 IU/mg
same,"neutralizing activity (RFFIT), Titer",[7],10
same,neutralizing activity (RFFIT),[8],0.33 IU/mL and 1650 IU/mg
same,"neutralizing activity (RFFIT), Titer",[8],56
same,neutralizing activity (RFFIT),[9],0.4 IU/mL and 2000 IU/mg
same,"neutralizing activity (RFFIT), Titer",[9],50
same,neutralizing activity (RFFIT),[10],0.5 IU/mL and 2540 IU/mg
same,"neutralizing activity (RFFIT), Titer",[10],280
same,neutralizing activity (RFFIT),[11],1070 IU/mg and 0.21 IU/mL
same,"neutralizing activity (RFFIT), Titer",[11],75
same,neutralizing activity (RFFIT),[12],0.6 IU/mL and 3000 IU/mg
same,"neutralizing activity (RFFIT), Titer",[12],54
same,neutralizing activity (RFFIT),[13],2.24 IU/mL and 2240 IU/mg
same,"neutralizing activity (RFFIT), Titer",[13],280
same,neutralizing activity (RFFIT),[14],0.44 IU/mL and 2200 IU/mg
same,"neutralizing activity (RFFIT), Titer",[14],13
same,neutralizing activity (RFFIT),[15],0.4 IU/mL and 2000 IU/mg
same,"neutralizing activity (RFFIT), Titer",[15],54
same,neutralizing activity (RFFIT),[16],2.22 IU/mL and 11100 IU/mg
same,"neutralizing activity (RFFIT), Titer",[16],50
same,neutralizing activity (RFFIT),[17],2.8 IU/mL and 2800 IU/mg
same,"neutralizing activity (RFFIT), Titer",[17],56
same,neutralizing activity (RFFIT),[18],0.52 IU/mL and 2620 IU/mg
same,"neutralizing activity (RFFIT), Titer",[18],11
same,neutralizing activity (RFFIT),[19],0.51 IU/mL and 2530 IU/mg
same,"neutralizing activity (RFFIT), Titer",[19],19
same,neutralizing activity (RFFIT),[20],0.39 IU/mL and 1930 IU/mg
same,"neutralizing activity (RFFIT), Titer",[20],54
same,neutralizing activity (RFFIT),[21],0.43 IU/mL and 2160 IU/mg
same,"neutralizing activity (RFFIT), Titer",[21],54
same,neutralizing activity (RFFIT),[22],0.41 IU/mL and 2030 IU/mg
same,"neutralizing activity (RFFIT), Titer",[22],65
same,neutralizing activity (RFFIT),[23],0.41 IU/mL and 2070 IU/mg
same,"neutralizing activity (RFFIT), Titer",[23],56
same,neutralizing activity (RFFIT),[24],1.85 IU/mL and 9260 IU/mg
same,"neutralizing activity (RFFIT), Titer",[24],50
same,neutralizing activity (RFFIT),[25],2.2 IU/mL and 2160 IU/mg
same,"neutralizing activity (RFFIT), Titer",[25],270
same,neutralizing activity (RFFIT),[26],0.41 IU/mL and 2060 IU/mg
same,"neutralizing activity (RFFIT), Titer",[26],70
same,neutralizing activity (RFFIT),[27],0.28 IU/mL and 1390 IU/mg
same,"neutralizing activity (RFFIT), Titer",[27],75
"antibody 2 (antibody, V domains shown) VH: EVQLVESGAEVKKPGASVKVSCKASGYTFTSYDISWVRQAPGQGLEWMGWISTYKGNTNFAQKFQDRVTLTTDTSTTTAYMELRSLTSDDTAVYYCARAKSHPFYDFWSAYYVPGAFDIWGQGTVVTVSS VL: not shown",neutralizing activity (RFFIT),[1],1.7 IU/mL and 1710 IU/mg
same,"neutralizing activity (RFFIT), Titer",[1],180
same,neutralizing activity (RFFIT),[2],1.5 IU/mL and 7500 IU/mg
same,"neutralizing activity (RFFIT), Titer",[2],210
same,neutralizing activity (RFFIT),[3],2.7 IU/mL and 2700 IU/mg
same,"neutralizing activity (RFFIT), Titer",[3],270
same,neutralizing activity (RFFIT),[4],5.4 IU/mL and 27000 IU/mg
same,"neutralizing activity (RFFIT), Titer",[4],540
same,neutralizing activity (RFFIT),[5],2 IU/mL and 10000 IU/mg
same,"neutralizing activity (RFFIT), Titer",[5],270
same,neutralizing activity (RFFIT),[6],0.46 IU/mL and 2320 IU/mg
same,"neutralizing activity (RFFIT), Titer",[6],13
same,neutralizing activity (RFFIT),[7],2.78 IU/mL and 13900 IU/mg
same,"neutralizing activity (RFFIT), Titer",[7],50
same,neutralizing activity (RFFIT),[8],1 IU/mL and 5000 IU/mg
same,"neutralizing activity (RFFIT), Titer",[8],170
same,neutralizing activity (RFFIT),[9],0.43 IU/mL and 2160 IU/mg
same,"neutralizing activity (RFFIT), Titer",[9],54
same,neutralizing activity (RFFIT),[10],2.4 IU/mL and 11800 IU/mg
same,"neutralizing activity (RFFIT), Titer",[10],1300
same,neutralizing activity (RFFIT),[11],3570 IU/mg and 0.71 IU/mL
same,"neutralizing activity (RFFIT), Titer",[11],250
same,neutralizing activity (RFFIT),[12],3.11 IU/mL and 15600 IU/mg
same,"neutralizing activity (RFFIT), Titer",[12],280
same,neutralizing activity (RFFIT),[13],2.16 IU/mL and 2160 IU/mg
same,"neutralizing activity (RFFIT), Titer",[13],270
same,neutralizing activity (RFFIT),[14],7.2 IU/mL and 36000 IU/mg
same,"neutralizing activity (RFFIT), Titer",[14],180
same,neutralizing activity (RFFIT),[15],1.56 IU/mL and 7780 IU/mg
same,"neutralizing activity (RFFIT), Titer",[15],210
same,neutralizing activity (RFFIT),[16],5.56 IU/mL and 27800 IU/mg
same,"neutralizing activity (RFFIT), Titer",[16],125
same,neutralizing activity (RFFIT),[17],2.7 IU/mL and 2700 IU/mg
same,"neutralizing activity (RFFIT), Titer",[17],54
same,neutralizing activity (RFFIT),[18],2.14 IU/mL and 10700 IU/mg
same,"neutralizing activity (RFFIT), Titer",[18],45
same,neutralizing activity (RFFIT),[19],0.96 IU/mL and 4800 IU/mg
same,"neutralizing activity (RFFIT), Titer",[19],36
same,neutralizing activity (RFFIT),[20],0.4 IU/mL and 2000 IU/mg
same,"neutralizing activity (RFFIT), Titer",[20],56
same,neutralizing activity (RFFIT),[21],0.4 IU/mL and 2000 IU/mg
same,"neutralizing activity (RFFIT), Titer",[21],50
same,neutralizing activity (RFFIT),[22],1.06 IU/mL and 5310 IU/mg
same,"neutralizing activity (RFFIT), Titer",[22],170
same,neutralizing activity (RFFIT),[23],1.85 IU/mL and 9260 IU/mg
same,"neutralizing activity (RFFIT), Titer",[23],250
same,neutralizing activity (RFFIT),[24],6.67 IU/mL and 33300 IU/mg
same,"neutralizing activity (RFFIT), Titer",[24],180
same,neutralizing activity (RFFIT),[25],2 IU/mL and 2000 IU/mg
same,"neutralizing activity (RFFIT), Titer",[25],250
same,neutralizing activity (RFFIT),[26],1.47 IU/mL and 7350 IU/mg
same,"neutralizing activity (RFFIT), Titer",[26],250
same,neutralizing activity (RFFIT),[27],1.04 IU/mL and 5180 IU/mg
same,"neutralizing activity (RFFIT), Titer",[27],280

# Reference: patent US20190022211A1 (CELLTRION, published 2019)
